Test [1] deals with T1, recombinant human IL-13 (human, UniProt P35225 35-146). As to the kind of experiment: cell-based or functional assay.
In test [2] the target is T1, recombinant human IL-13. As to the kind of experiment: cell-based or functional assay. The source holds these as a separate data set.
Test [3] addresses T1, recombinant human IL-13. As to the kind of experiment: cell-based or functional assay. The source holds these as a separate data set.
The target of a further test is T2, recombinant dog IL-13 (dog, UniProt Q9N0W9 19-131, limits assumed).
T2 sequence (looked up): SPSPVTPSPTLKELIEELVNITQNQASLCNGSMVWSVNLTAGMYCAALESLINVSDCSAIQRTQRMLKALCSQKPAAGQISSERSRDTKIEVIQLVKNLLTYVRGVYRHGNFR
As to the kind of experiment: competition ELISA: test species IL-13 against biotinylated human IL-13 for binding to IL13-0001. A general note: ELISA stands for enzyme-linked immunosorbent assay.

A further test concerns the target T3, recombinant mouse IL-13 (mouse, UniProt P20109 26-131, limits assumed).
T3 sequence (looked up): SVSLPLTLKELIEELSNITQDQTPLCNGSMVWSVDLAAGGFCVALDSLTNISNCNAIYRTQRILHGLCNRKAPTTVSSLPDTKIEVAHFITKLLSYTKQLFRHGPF
The test is described as above.

The target of test [4] is T4, recombinant cynomolgus monkey IL-13 (cynomolgus monkey, UniProt Q0PW92 19-132).
T4 construct: also called Cyno IL-13
The description is as above.
From the text: (§1) Recombinant human, mouse, rat, and dog IL 13 were purchased from R&D Systems (Minneapolis, MN). Recombinant sheep and rabbit IL-13 were produced by Pfizer Global Biotechnologies (PGBT, Cambridge, MA). Recombinant cynomolgus monkey IL 13 was purchased from Sino Biological (Beijing, China).

Test [5] deals with T1, recombinant human IL-13. As to the kind of experiment: cell-based or functional assay. The source holds these as a separate data set.
The next test deals with native human IL-13 (human, UniProt P35225 35-146, limits assumed). As to the kind of experiment: cell-based or functional assay.
The next test concerns the target T5, recombinant sheep IL-4 (sheep, UniProt P30368 25-135, limits assumed).
T5 sequence (looked up): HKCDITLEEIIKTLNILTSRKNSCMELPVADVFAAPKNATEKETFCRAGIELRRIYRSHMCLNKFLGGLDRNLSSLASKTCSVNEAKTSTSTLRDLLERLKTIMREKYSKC
As to the kind of experiment: competition ELISA: test species IL-4 against biotinylated human IL-4 for binding to IL4-1305.

In a further test the target is T6, recombinant mouse IL-4 (mouse, UniProt P07750 23-140).
T6 sequence (looked up): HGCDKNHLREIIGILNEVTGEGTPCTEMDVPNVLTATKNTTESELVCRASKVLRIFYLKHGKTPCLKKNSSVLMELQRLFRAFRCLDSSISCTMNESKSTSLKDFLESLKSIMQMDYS
Described as above.

The next test addresses T7, recombinant dog IL-4 (dog, UniProt O77762 25-132).
T7 sequence (looked up): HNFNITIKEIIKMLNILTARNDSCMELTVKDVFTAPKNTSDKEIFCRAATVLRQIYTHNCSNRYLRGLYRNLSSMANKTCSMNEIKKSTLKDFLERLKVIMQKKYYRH
Described as above.

Test [6] has as its target T8, recombinant cynomolgus monkey IL-4 (cynomolgus monkey, UniProt P79339 25-153).
T8 construct: also called Cyno IL-4
T8 sequence (looked up): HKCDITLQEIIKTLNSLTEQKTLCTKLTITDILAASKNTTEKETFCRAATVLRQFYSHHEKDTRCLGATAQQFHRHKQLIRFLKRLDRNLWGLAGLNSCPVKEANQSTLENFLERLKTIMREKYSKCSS
The test is described as above.
Method: (§2) Recombinant human, mouse, rat, dog, and rabbit IL 4 were purchased from R&D Systems (Minneapolis, MN). Recombinant cynomolgus monkey and sheep IL-4 were prepared by Pfizer, Cambridge, MA).

Another test has as its target T9, recombinant rabbit IL-4 (rabbit, UniProt Q9MZR8 25-147, limits assumed).
T9 sequence (looked up): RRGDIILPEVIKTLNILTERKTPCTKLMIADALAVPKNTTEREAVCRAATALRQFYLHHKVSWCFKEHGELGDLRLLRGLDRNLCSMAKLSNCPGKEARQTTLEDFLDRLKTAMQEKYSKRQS
The description is as above.

For the next test, the target named is T10, recombinant rat IL-4 (rat, UniProt P20096 25-147, limits assumed).
T10 sequence (looked up): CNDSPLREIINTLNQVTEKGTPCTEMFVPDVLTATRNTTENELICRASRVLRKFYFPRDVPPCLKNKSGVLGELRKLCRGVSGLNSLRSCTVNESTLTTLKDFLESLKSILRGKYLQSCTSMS
Described as above.

Another test concerns the target T11, recombinant human IL-4 (human, UniProt P05112 25-153).
T11 sequence (looked up): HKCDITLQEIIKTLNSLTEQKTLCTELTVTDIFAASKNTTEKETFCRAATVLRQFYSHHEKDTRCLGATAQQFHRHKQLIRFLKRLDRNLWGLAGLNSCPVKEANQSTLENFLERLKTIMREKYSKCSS
As to the kind of experiment: cell-based or functional assay.

A further test has as its target T12, rat IL-4 (rat, UniProt P20096 25-147, limits assumed).
T12 construct: also called rt IL-4
T12 sequence (looked up): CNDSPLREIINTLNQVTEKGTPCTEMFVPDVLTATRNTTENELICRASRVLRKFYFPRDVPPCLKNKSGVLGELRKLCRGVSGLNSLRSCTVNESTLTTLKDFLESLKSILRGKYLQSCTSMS
As to the kind of experiment: ELISA: competition with biotinylated human IL-4 for binding to IL4-1305.

For the next test, the target named is T13, cynomolgus monkey IL-4 (cynomolgus monkey, UniProt P79339 25-153).
T13 construct: mature; also called cy IL-4; cyno IL-4
T13 sequence (looked up): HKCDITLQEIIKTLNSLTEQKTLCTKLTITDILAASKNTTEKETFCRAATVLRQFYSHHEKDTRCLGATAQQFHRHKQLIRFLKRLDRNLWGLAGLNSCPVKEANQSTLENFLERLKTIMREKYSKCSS
Described as above.

The target in another test is T14, rabbit IL-4 (rabbit, UniProt Q9MZR8 25-147, limits assumed).
T14 construct: also called rb IL-4
T14 sequence (looked up): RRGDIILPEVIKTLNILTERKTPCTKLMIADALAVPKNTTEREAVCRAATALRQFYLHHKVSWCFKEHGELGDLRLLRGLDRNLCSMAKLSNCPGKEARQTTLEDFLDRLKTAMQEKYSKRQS
The description is as above.

The target of another test is T15, dog IL-4 (dog, UniProt O77762 25-132).
T15 sequence (looked up): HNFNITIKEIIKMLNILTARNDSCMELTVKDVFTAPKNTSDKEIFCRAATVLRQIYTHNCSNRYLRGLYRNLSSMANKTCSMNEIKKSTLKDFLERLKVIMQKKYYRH
The test is described as above.

The next test concerns the target T16, mouse IL-4 (mouse, UniProt P07750 23-140).
T16 construct: also called mu IL-4
T16 sequence (looked up): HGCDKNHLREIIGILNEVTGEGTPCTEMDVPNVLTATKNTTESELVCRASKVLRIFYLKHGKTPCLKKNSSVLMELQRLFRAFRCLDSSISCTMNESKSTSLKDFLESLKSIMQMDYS
The test is described as above.

In another test the target is T17, sheep IL-4 (sheep, UniProt P30368 25-135, limits assumed).
T17 sequence (looked up): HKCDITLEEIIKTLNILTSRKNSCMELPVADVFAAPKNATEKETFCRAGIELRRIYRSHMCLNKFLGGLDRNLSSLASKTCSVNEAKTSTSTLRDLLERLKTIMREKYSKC
The description is as above.

Values joined by “and” are separate entries in the source; they are usually repeats but may differ in a detail not shown here. Identical values can stand only once.

The record followed here is patent US20240117030A1 (Pfizer, published 2024).

T1 sequence (P35225 35-146 limits assumed): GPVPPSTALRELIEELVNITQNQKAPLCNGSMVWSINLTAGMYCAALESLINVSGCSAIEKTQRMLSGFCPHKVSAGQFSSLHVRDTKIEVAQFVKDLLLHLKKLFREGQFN
T4 sequence (Q0PW92 entry or part of it limits assumed): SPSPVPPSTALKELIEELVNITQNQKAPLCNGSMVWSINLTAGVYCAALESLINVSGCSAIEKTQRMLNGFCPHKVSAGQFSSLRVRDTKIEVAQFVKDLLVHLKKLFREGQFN
Chain of native human IL-13 (P35225 35-146 limits assumed): as the sequence (P35225 35-146 limits assumed) above
From the text for recombinant dog IL-13: as §1
Method for recombinant dog IL-4: as §2
From the text for recombinant mouse IL-13: as §1
Method for recombinant mouse IL-4: as §2
Method for recombinant rabbit IL-4: as §2
Method for recombinant rat IL-4: as §2
Method for recombinant sheep IL-4: as §2

B1: IL13-0001 (antibody, human IgG1, kappa, V domains shown)
VH: EVQLVESGGGLVQPGGSLRLSCAASGFTFSSYAMSWVRQAPGKGLEWVASISSGDTTYYPDSVKGRFTISRDNAKNSLYLQMNSLRAEDTAVYYCARNEGYYFGLTLWGQGTLVTVSS
VL: DIQMTQSPSSLSASVGDRVTITCKASESVDHFGWSLVHWYQQKPGKAPKLLIYRASNLESGVPSRFSGSGSGTDFTLTISSLQPEDFATYYCQQSNEDPWTFGGGTKVEIKR
notes: also called IL13433-0001; 1RVHC9-VLA4
As to B1, in the test with recombinant human IL-13 [1], the “IC50 (median), IL-13 induced CD23 expression on human monocytes” value was determined as 0.00438 nM. Also, in the test with recombinant human IL-13 [2], the “IC50 (median) for STAT6 Phosphorylation in gated B Cells, human whole blood” value amounted to 0.0665 nM. In the test with recombinant human IL-13 [2], the “IC50 (median) for STAT6 Phosphorylation in gated Monocytes, human whole blood” value was found to be 0.525 nM. For the same molecule, the “IL-13 induced CD23 upregulation (IC50), parental IgG” value with recombinant human IL-13 [3] is 0.0047 nM and 0.00438 nM. In addition, the binding result in the test with recombinant dog IL-13 is given as “no binding”; with recombinant mouse IL-13, “no binding”; in [4], “binds”. Also, the “IC50 (median), Monocyte CD23 expression” value in the test with recombinant human IL-13 [5] came to 0.0105 nM. For the same molecule, the “IC50 (median), STAT6 phosphorylation in HT-29 cells” value in the test with recombinant human IL-13 [5] was 0.092 nM; with native human IL-13 it was 0.079 nM.

B2: IL4-1305 (antibody, human IgG1, kappa)
heavy: EVTLRESGPALVKPTQTLTLTCTFSGFSLSNFGEGLSWIRQPPGKGLEWLAHIYWDDDKRYNPSLKSRLTISKDTSRNQVVLTMTNMDPVDTATYYCARRETVFYWYFDVWGRGTPVTVSSASTKGPSVFPLAPSSKSTSGGTAALGCLVKDYFPEPVTVSWNSGALTSGVHTFPAVLQSSGLYSLSSVVTVPSSSLGTQTYICNVNHKPSNTKVDKKVEPKSCDKTHTCPPCPAPEAAGAPSVFLFPPKPKDTLMISRTPEVTCVVVDVSHEDPEVKFNWYVDGVEVHNAKTKPREEQYNSTYRVVSVLTVLHQDWLNGKEYKCKVSNKALPAPIEKTISKAKGQPREPQVYTLPPSREEMTKNQVSLTCLVKGFYPSDIAVEWESNGQPENNYKTTPPVLDSDGSFFLYSKLTVDKSRWQQGNVFSCSVMHEALHNHYTQKSLSLSPGK
light: DIQMTQSPSSLSASVGDRVTITCKASQSVDEDGDSYMNWYQQKPGKAPKLLIYAASNLESGVPSRFSGSGSGTDFTLTISSLQPEDFATYYCQQSNEDPPTFGGGTKVEIKRTVAAPSVFIFPPSDEQLKSGTASVVCLLNNFYPREAKVQWKVDNALQSGNSQESVTEQDSKDSTYSLSSTLTLSKADYEKHKVYACEVTHQGLSSPVTKSFNRGEC
On to B2, for which the binding result was “no binding” with recombinant sheep IL-4; “no binding” with recombinant mouse IL-4; “no binding” with recombinant dog IL-4; “binds” in test [6]; “no binding” with recombinant rabbit IL-4; “no binding” with recombinant rat IL-4. Moreover, in the test with recombinant human IL-4, the “IC50 for STAT6 Phosphorylation in gated B Cells, human whole blood” value was 0.073 nM. In the test with recombinant human IL-4, the “IC50 for STAT6 Phosphorylation in gated Monocytes, human whole blood” value was 0.1 nM. The “IC50 for STAT6 Phosphorylation in gated T cells, human whole blood” value with recombinant human IL-4 is 0.075 nM.

B3: IL4-1305 (antibody, IgG1)
VH: EVTLRESGPALVKPTQTLTLTCTFSGFSLSNFGEGLSWIRQPPGKGLEWLAHIYWDDDKRYNPSLKSRLTISKDTSRNQVVLTMTNMDPVDTATYYCARRETVFYWYFDVWGRGTPVTVSS
light: DIQMTQSPSSLSASVGDRVTITCKASQSVDEDGDSYMNWYQQKPGKAPKLLIYAASNLESGVPSRFSGSGSGTDFTLTISSLQPEDFATYYCQQSNEDPPTFGGGTKVEIKRTVAAPSVFIFPPSDEQLKSGTASVVCLLNNFYPREAKVQWKVDNALQSGNSQESVTEQDSKDSTYSLSSTLTLSKADYEKHKVYACEVTHQGLSSPVTKSFNRGEC
notes: IgG1 effector-null
On to B3, for which the binding result with rat IL-4 was “no binding”; with cynomolgus monkey IL-4, “binds”; in the test with rabbit IL-4 it was “no binding”; with dog IL-4, “no binding”; with mouse IL-4 it was “no binding”; with sheep IL-4, “no binding”.
